From publication PMC8531357, “Regulation of plant phototropic growth by NPH3/RPT2-like substrate phosphorylation and 14-3-3 binding” (Nature Communications, 2021)
Residue numbers refer to the chain shown, from its start. Blank lines part the entries; values can stand above or below the molecule they belong to.

Columns and labels:
14-3-3 Epsilon = 14-3-3 Epsilon (UniProt P48347); test: far-western of anti-GFP IP, GST-14-3-3 probe; conditions: reference: wild-type GFP-NPH3; sites S744
[1] = biological target: T1, GFP-NPH3 (NON-PHOTOTROPIC HYPOCOTYL 3) (Arabidopsis, UniProt Q9FMF5 1-746, phosphoserine at 744 after blue light irradiation (pS744 antibody), not in darkness; phosphorylated on multiple other sites in darkness (including S213, S223, S233, S237), dephosphorylated after blue …); test: far-Western, overlay or dot blot; GFP-Trap immunoprecipitates from etiolated seedlings irradiated with 20 µmol m^-2 s^-1 blue light for 15 min (L), separated by SDS-PAGE, on PVDF; probed with purified GST-14-3-3 or GST alone at 1 µM in 20 mM HEPES-KOH pH 7.7, 75 mM KCl, 0.1 mM EDTA, 1 mM DTT, 2% milk, 0.04% Tween-20; detected with anti-GST; conditions: both partners purified
T1 construct: NPH3 (NON-PHOTOTROPIC HYPOCOTYL 3), Arabidopsis; S746 is the last residue; The state of the protein differs between dark and blue-light-treated seedlings; the two are kept apart by the assay; also called NPH3::GFP-NPH3; source: etiolated Arabidopsis nph3 seedlings expressing NPH3::GFP-NPH3; total protein extract, anti-GFP immunoprecipitated
T1 sequence (looked up): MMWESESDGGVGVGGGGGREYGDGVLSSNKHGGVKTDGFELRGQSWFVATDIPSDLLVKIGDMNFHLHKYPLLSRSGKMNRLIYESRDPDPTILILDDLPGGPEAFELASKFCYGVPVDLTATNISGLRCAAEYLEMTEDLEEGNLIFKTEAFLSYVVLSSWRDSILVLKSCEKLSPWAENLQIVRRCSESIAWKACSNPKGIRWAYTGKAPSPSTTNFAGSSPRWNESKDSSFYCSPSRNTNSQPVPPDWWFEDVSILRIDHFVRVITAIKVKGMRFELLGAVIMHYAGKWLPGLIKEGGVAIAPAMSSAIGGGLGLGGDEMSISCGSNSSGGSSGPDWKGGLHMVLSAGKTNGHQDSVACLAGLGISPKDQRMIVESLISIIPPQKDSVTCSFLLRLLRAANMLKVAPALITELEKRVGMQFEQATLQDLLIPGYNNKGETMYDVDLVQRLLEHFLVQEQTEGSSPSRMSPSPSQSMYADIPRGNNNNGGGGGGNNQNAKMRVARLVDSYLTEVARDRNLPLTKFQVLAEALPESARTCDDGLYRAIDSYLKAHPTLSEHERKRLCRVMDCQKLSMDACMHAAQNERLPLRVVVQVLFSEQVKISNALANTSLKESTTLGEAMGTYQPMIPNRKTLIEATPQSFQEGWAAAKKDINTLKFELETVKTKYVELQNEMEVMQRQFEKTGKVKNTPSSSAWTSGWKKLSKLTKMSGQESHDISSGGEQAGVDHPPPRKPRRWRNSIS

GFP-NPH3 S746A = biological target: T2, GFP-NPH3 S746A (Arabidopsis, UniProt Q9FMF5 1-746, S746A, phosphoserine at 744 after blue light irradiation, at a reduced level (pS744 antibody)); test: as above; conditions: both partners purified
T2 construct: NPH3, Arabidopsis; source: etiolated Arabidopsis nph3 seedlings expressing NPH3::GFP-NPH3 S746A; total protein extract, anti-GFP immunoprecipitated
T2 sequence (looked up): T1 sequence (looked up) with S746A

- binding against the reference (14-3-3 Epsilon): lost
Molecule: NPH3 (NON-PHOTOTROPIC HYPOCOTYL 3) (from UniProt Q9FMF5) S744A

- binding result [1]: binds
- binding result (GFP-NPH3 S746A): binds
B1: GST-14-3-3 Epsilon (natural protein, Arabidopsis, UniProt P48347 1-254, looked up)
chain: MENEREKQVYLAKLSEQTERYDEMVEAMKKVAQLDVELTVEERNLVSVGYKNVIGARRASWRILSSIEQKEESKGNDENVKRLKNYRKRVEDELAKVCNDILSVIDKHLIPSSNAVESTVFFYKMKGDYYRYLAEFSSGAERKEAADQSLEAYKAAVAAAENGLAPTHPVRLGLALNFSVFYYEILNSPESACQLAKQAFDDAIAELDSLNEESYKDSTLIMQLLRDNLTLWTSDLNEEGDERTKGADEPQDEN
notes: Arabidopsis 14-3-3 isoform Epsilon (epsilon group member), expressed from pGEX-4T1 as a translational fusion with GST; source: E. coli BL21(DE3), purified (glutathione agarose)

- binding result [1]: binds
B2: GST-14-3-3 Lambda (natural protein, Arabidopsis, UniProt P48349 1-248, looked up)
chain: MAATLGRDQYVYMAKLAEQAERYEEMVQFMEQLVTGATPAEELTVEERNLLSVAYKNVIGSLRAAWRIVSSIEQKEESRKNDEHVSLVKDYRSKVESELSSVCSGILKLLDSHLIPSAGASESKVFYLKMKGDYHRYMAEFKSGDERKTAAEDTMLAYKAAQDIAAADMAPTHPIRLGLALNFSVFYYEILNSSDKACNMAKQAFEEAIAELDTLGEESYKDSTLIMQLLRDNLTLWTSDMQEQMDEA
notes: Arabidopsis 14-3-3 isoform Lambda (non-epsilon group member), expressed from pGEX-4T1 as a translational fusion with GST; source: E. coli BL21(DE3), purified (glutathione agarose)
